The target in data set [1] is T1, Full-length His-tagged MALT1 (human, UniProt Q9UDY8 1-824).
T1 sequence: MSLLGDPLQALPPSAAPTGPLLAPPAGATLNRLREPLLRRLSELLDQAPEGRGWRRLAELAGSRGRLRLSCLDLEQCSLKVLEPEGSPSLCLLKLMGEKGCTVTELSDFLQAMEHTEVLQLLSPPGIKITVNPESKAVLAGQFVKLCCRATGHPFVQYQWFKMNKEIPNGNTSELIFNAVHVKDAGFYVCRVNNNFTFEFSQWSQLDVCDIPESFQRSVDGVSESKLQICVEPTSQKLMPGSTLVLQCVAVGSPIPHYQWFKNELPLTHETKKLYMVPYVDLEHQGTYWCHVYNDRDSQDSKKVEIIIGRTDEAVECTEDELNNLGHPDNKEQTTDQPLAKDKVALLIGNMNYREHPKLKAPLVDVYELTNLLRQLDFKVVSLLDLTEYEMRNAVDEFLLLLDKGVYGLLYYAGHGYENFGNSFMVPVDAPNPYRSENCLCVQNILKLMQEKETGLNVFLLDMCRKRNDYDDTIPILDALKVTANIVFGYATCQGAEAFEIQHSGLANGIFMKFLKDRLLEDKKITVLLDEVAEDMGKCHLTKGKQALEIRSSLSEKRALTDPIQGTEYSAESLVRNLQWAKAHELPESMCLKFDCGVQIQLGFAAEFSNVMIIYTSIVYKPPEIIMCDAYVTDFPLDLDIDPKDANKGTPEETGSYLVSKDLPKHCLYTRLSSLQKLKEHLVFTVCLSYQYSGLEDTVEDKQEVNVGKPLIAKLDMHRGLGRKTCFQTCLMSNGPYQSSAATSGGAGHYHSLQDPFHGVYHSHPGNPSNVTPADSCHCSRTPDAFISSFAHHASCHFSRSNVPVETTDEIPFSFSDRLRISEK
The data set is described as follows: negative-stain EM.

Data set [2] concerns the molecule itself. The data set can be described thus: SEC.
Data set [3] deals with T1, Full-length His-tagged MALT1. The data set can be described thus: fluorescence quenching polymerisation assay.

The values that follow come from article PMC9357155 (Cancer Discovery, 2022).

B1: BCL10 E140X truncation mutant, after removal of the MBP tag by 3C protease (domain or fragment)
chain: MEPTAPSLTEEDLTEVKKDALENLRVYLCEKIIAERHFDHLRAKKILSREDTEEISCRTSSRKRAGKLLDYLQENPKGLDTLVESIRREKTQNFLIQKITDEVLKLRNIKLEHLKGLKCSSCEPFPDGATNNLSRSNSD
modifications: Alexa488 (C5-maleimide) on cysteine residues in the confocal and quenching assays; not labelled for EM
As for B1, the binding result in data set [1] is listed as “binds”.

B2: MBP-fused BCL10 E140X (domain or fragment)
chain: MEPTAPSLTEEDLTEVKKDALENLRVYLCEKIIAERHFDHLRAKKILSREDTEEISCRTSSRKRAGKLLDYLQENPKGLDTLVESIRREKTQNFLIQKITDEVLKLRNIKLEHLKGLKCSSCEPFPDGATNNLSRSNSD
On to B2, for which the binding result in data set [2] is “binds”.

B3: BCL10 wild type, full length, after removal of the MBP tag by 3C protease (natural protein)
chain: MEPTAPSLTEEDLTEVKKDALENLRVYLCEKIIAERHFDHLRAKKILSREDTEEISCRTSSRKRAGKLLDYLQENPKGLDTLVESIRREKTQNFLIQKITDEVLKLRNIKLEHLKGLKCSSCEPFPDGATNNLSRSNSDESNFSEKLRASTVMYHPEGESSTTPFFSTNSSLNLPVLEVGRTENTIFSSTTLPRPGDPGAPPLPPDLQLEEEGTCANSSEMFLPLRSRTVSRQ
modifications: Alexa488 (C5-maleimide) on cysteine residues in the confocal and quenching assays; not labelled for EM
As to B3, in data set [1], the binding result is “binds”.

B4: BCL10 R58Q, full length, after removal of the MBP tag by 3C protease (natural protein)
chain: MEPTAPSLTEEDLTEVKKDALENLRVYLCEKIIAERHFDHLRAKKILSREDTEEISCQTSSRKRAGKLLDYLQENPKGLDTLVESIRREKTQNFLIQKITDEVLKLRNIKLEHLKGLKCSSCEPFPDGATNNLSRSNSDESNFSEKLRASTVMYHPEGESSTTPFFSTNSSLNLPVLEVGRTENTIFSSTTLPRPGDPGAPPLPPDLQLEEEGTCANSSEMFLPLRSRTVSRQ
modifications: Alexa488 (C5-maleimide) on cysteine residues in the confocal and quenching assays; not labelled for EM
As to B4, the binding result in data set [3] is given as “binds”.
